From PMC11253607, “A conserved inhibitory interdomain interaction regulates DNA-binding activities of hybrid two-component systems in Bacteroides” (mBio, 2024)
Numbering of substitutions follows the chain as printed.

Legend:
[1] = target: T1, BT4663-RRAG C1174A;H1175G (Bacteroides thetaiotaomicron VPI 5482) (UniProt Q89YR8); experiment: EMSA; conditions: 50 mM Tris pH 7.6, 200 mM NaCl, 2.5% glycerol, 2 mM MgCl2, 0.5 mM DTT, 0.1 ug/uL BSA, 10 ng/uL salmon sperm DNA, ~2.5 ng/uL DNA; 30 min, temperature not …
T1 sequence: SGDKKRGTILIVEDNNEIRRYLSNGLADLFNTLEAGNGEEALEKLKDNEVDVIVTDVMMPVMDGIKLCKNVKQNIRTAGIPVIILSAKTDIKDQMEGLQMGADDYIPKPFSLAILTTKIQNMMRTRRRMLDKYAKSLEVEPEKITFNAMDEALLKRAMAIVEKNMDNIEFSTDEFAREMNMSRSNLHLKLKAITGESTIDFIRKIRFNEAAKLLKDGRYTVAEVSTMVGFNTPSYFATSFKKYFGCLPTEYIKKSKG

[2] = target: T2, BT4663-RRAD C1174A;H1175D (Bacteroides thetaiotaomicron VPI 5482) (UniProt Q89YR8); experiment: EMSA; conditions: 50 mM Tris pH 7.6, 200 mM NaCl, 2.5% glycerol, 2 mM MgCl2, 0.5 mM DTT, 0.1 ug/uL BSA, 10 ng/uL salmon sperm DNA, ~2.5 ng/uL DNA; 30 min, temperature not …
T2 sequence: T1 sequence with G79D

In the case of “GATGGTAGTGTGGGGTCTCATGCCTAGGATACAGGAGATAAACAGCTTTTTTAAACAAAAACAACATATGTCTCAACAAATTTGATATCAAAAAAATCATTTTTGAACAAAGTATGAACAACCTAAATTAAAGAATCTAATTAATGAGGTTACATTTGCAACAGTAAAATAACACTTTTAATAATTATAAAACCTAATAAAGTATGAAGAACGAGACCGAAATTCAATAAGGAGG (double strand) [bt4662 promoter fragment]”, the Kd [1] is reported as 900 nM and the Kd [2] is reported as 900 nM.
